Reference: patent publication EP3020822A1 (Janssen Biotech, Inc., dated 2016)

What was measured:
[1] = target: T1, human TLR3 extracellular domain (ECD) (human, UniProt O15455 24-703); assay: Biacore (data not shown)
T1 construct: amino acids 1-703 of human TLR3; the structural model covers residues 30-687; also called huTLR3 ECD; TLR3 ECD

[2] = target: T1, human TLR3 extracellular domain (ECD); assay: ELISA, huTLR3 ECD coated, mAb titrated, anti-human IgG-peroxidase
[3] = target: T1, human TLR3 extracellular domain (ECD); assay: ELISA, human TLR3 ECD coated, goat anti-human Fc:HRP, luminescence

| Kd [1] | EC50 [2] | binding result [3] | Binder |
| --- | --- | --- | --- |
| < 10 nM | 0.0336 µg/mL | – | mAb 14 (antibody, human IgG4 S228P, kappa, V domains shown, human IgG4 with S229P; also called candidate 14; Fab 14) VH: QVELVQSGAEVKKPGESLKISCKGSGYSFTNYWVGWVRQMPGKGLEWMGFIDPSDSYTNYAPSFQGQVTISADKSISTAYLQWSSLKASDTAMYYCARELYQGYMDTFDSWGQGTLVTVSS VL: DIQMTQSPSSLSASVGDRVTITCRASQSIGLYLAWYQQKPGKAPKLLIYAASSLQSGVPSRFSGSGSGTDFTLTISSLQPEDFATYYCQQAETVSPTFGQGTKVEIKR |
| < 10 nM | 0.0235 µg/mL | – | mAb 13 (antibody, human IgG4 S228P, V domains shown, human IgG4 with S229P; also called candidate 13; Fab 13) VH: QVELVQSGAEVKKPGESLKISCKGSGYSFTNYWVGWVRQMPGKGLEWMGFIDPSDSYTNYAPSFQGQVTISADKSISTAYLQWSSLKASDTAMYYCARELYQGYMDTFDSWGQGTLVTVSS VL: DIQMTQSPSSLSASVGDRVTITCRASQSIGLYLAWYQQKPGKAPKLLIYAASSLQSGVPSRFSGSGSGTDFTLTISSLQPEDFATYYCQQGESILSTFGQGTKVEIK |
| < 10 nM | 0.0665 µg/mL | – | mAb 19 (antibody, human IgG4 S228P, V domains shown, human IgG4 with S229P; also called candidate 19; Fab 19) VH: QVELVQSGAEVKKPGESLKISCKGSGYSFTNYWVGWVRQMPGKGLEWMGFIDPSDSYTNYAPSFQGQVTISADKSISTAYLQWSSLKASDTAMYYCARELYQGYMDTFDSWGQGTLVTVSS VL: DIQMTQSPSSLSASVGDRVTITCRASQSIGLYLAWYQQKPGKAPKLLIYAASSLQSGVPSRFSGSGSGTDFTLTISSLQPEDFATYYCQQYGSVSITFGQGTKVEIK |
| – | – | binds | mAb 15-2 (antibody, human IgG4 S228P, kappa, F234A L235A, V domains shown, also called HC: V34I) VH: EVQLVQSGAEVKKPGESLKISCKGSGYSFTNYWIGWVRQMPGKGLEWMGFIDPSDSYTNYAPSFQGQVTISADKSISTAYLQWSSLKASDTAMYYCARELYQGYMDTFDSWGQGTLVTVSS VL: DIQMTQSPSSLSASVGDRVTITCRASQSIGLYLAWYQQKPGKAPKLLIYAASSLQSGVPSRFSGSGSGTDFTLTISSLQPEDFATYYCQQGNTLSYTFGQGTKVEIKR |
| – | – | binds | mAb 15-1 (antibody, human IgG4 S228P, kappa, F234A L235A, V domains shown, also called HC: F50R) VH: EVQLVQSGAEVKKPGESLKISCKGSGYSFTNYWVGWVRQMPGKGLEWMGRIDPSDSYTNYAPSFQGQVTISADKSISTAYLQWSSLKASDTAMYYCARELYQGYMDTFDSWGQGTLVTVSS VL: DIQMTQSPSSLSASVGDRVTITCRASQSIGLYLAWYQQKPGKAPKLLIYAASSLQSGVPSRFSGSGSGTDFTLTISSLQPEDFATYYCQQGNTLSYTFGQGTKVEIKR |
| – | – | binds | mAb 15-3 (antibody, human IgG4 S228P, kappa, F234A L235A, V domains shown, also called HC: V34I/G35S) VH: EVQLVQSGAEVKKPGESLKISCKGSGYSFTNYWISWVRQMPGKGLEWMGFIDPSDSYTNYAPSFQGQVTISADKSISTAYLQWSSLKASDTAMYYCARELYQGYMDTFDSWGQGTLVTVSS VL: DIQMTQSPSSLSASVGDRVTITCRASQSIGLYLAWYQQKPGKAPKLLIYAASSLQSGVPSRFSGSGSGTDFTLTISSLQPEDFATYYCQQGNTLSYTFGQGTKVEIKR |
| – | – | binds | mAb 15-4 (antibody, human IgG4 S228P, kappa, F234A L235A, V domains shown, also called HC: A61S/Q67H) VH: EVQLVQSGAEVKKPGESLKISCKGSGYSFTNYWVGWVRQMPGKGLEWMGFIDPSDSYTNYSPSFQGHVTISADKSISTAYLQWSSLKASDTAMYYCARELYQGYMDTFDSWGQGTLVTVSS VL: DIQMTQSPSSLSASVGDRVTITCRASQSIGLYLAWYQQKPGKAPKLLIYAASSLQSGVPSRFSGSGSGTDFTLTISSLQPEDFATYYCQQGNTLSYTFGQGTKVEIKR |
| < 10 nM | 0.0172 µg/mL | – | mAb 1 (antibody, human IgG4 S228P, human IgG4 with S229P; also called candidate 1; Fab 1) heavy: not shown VL: DIVLTQSPATLSLSPGERATLSCRASQYIDISYLAWYQQKPGQAPRLLIYDASSRATGVPARFSGSGSGTDFTLTISSLEPEDFAVYYCQQYYSLSITFGQGTKVEIK |
| < 10 nM | 0.0186 µg/mL | – | mAb 8 (antibody, human IgG4 S228P, V domains shown, human IgG4 with S229P; also called candidate 8; Fab 8) VH: QVELQQSGPGLVKPSQTLSLTCAISGDSVSSNSAAWGWIRQSPGRGLEWLGIIQTRSKWYNDYAVSVKSRITINPDTSKNQFSLQLNSVTPEDTAVYYCARYSYPFYSIDYWGQGTLVTVSS VL: DIELTQPPSVSVAPGQTARISCSGDNIGSYYVHWYQQKPGQAPVLVIYEDSERPSGIPERFSGSNSGNTATLTISGTQAEDEADYYCQSYDSQFSFGVFGGGTKLTVL |
| < 10 nM | 0.0158 µg/mL | – | mAb 10 (antibody, human IgG4 S228P, V domains shown, human IgG4 with S229P; also called candidate 10; Fab 10) VH: QVELQQSGPGLVKPSQTLSLTCAISGDSVSSNSAAWGWIRQSPGRGLEWLGIIQKRSKWYNNYAVSVKSRITINPDTSKNQFSLQLNSVTPEDTAVYYCARYSYPFYSIDYWGQGTLVTVSS VL: DIELTQPPSVSVAPGQTARISCSGDNIGSYYVHWYQQKPGQAPVLVIYEDSERPSGIPERFSGSNSGNTATLTISGTQAEDEADYYCQSYDTPVYSVFGGGTKLTVL |
| < 10 nM | 0.00968 µg/mL | – | mAb 18 (antibody, human IgG4 S228P, V domains shown, human IgG4 with S229P; also called candidate 18; Fab 18) VH: QVELQQSGPGLVKPSQTLSLTCAISGDSVSSNSAAWGWIRQSPGRGLEWLGIIQKRSKWYNNYAVSVKSRITINPDTSKNQFSLQLNSVTPEDTAVYYCARYSYPFYSIDYWGQGTLVTVSS VL: DIELTQPPSVSVAPGQTARISCSGDNIGSYYVHWYQQKPGQAPVLVIYEDSERPSGIPERFSGSNSGNTATLTISGTQAEDEADYYCQSYDSQFSFGVFGGGTKLTVL |
| < 10 nM | 0.0226 µg/mL | – | mAb 9 (antibody, human IgG4 S228P, V domains shown, human IgG4 with S229P; also called candidate 9; Fab 9) VH: QVELQQSGPGLVKPSQTLSLTCAISGDSVSSNSAAWGWIRQSPGRGLEWLGIIQIRSKWYNDYALSVKSRITINPDTSKNQFSLQLNSVTPEDTAVYYCARYSYPFYSIDYWGQGTLVTVSS VL: DIELTQPPSVSVAPGQTARISCSGDNIGSYYVHWYQQKPGQAPVLVIYEDSERPSGIPERFSGSNSGNTATLTISGTQAEDEADYYCQSYDSQFSFGVFGGGTKLTVL |
| < 10 nM | 0.0263 µg/mL | – | mAb 11 (antibody, human IgG4 S228P, V domains shown, human IgG4 with S229P; also called candidate 11; Fab 11) VH: QVELQQSGPGLVKPSQTLSLTCAISGDSVSSNSAAWGWIRQSPGRGLEWLGIIQKRSKWYNNYAVSVKSRITINPDTSKNQFSLQLNSVTPEDTAVYYCARYSYPFYSIDYWGQGTLVTVSS VL: DIELTQPPSVSVAPGQTARISCSGDNIGSYYVHWYQQKPGQAPVLVIYEDSERPSGIPERFSGSNSGNTATLTISGTQAEDEADYYCSSYDEPNFNVFGGGTKLTVL |
| < 10 nM | 0.0138 µg/mL | – | mAb 17 (antibody, human IgG4 S228P, V domains shown, human IgG4 with S229P; also called candidate 17; Fab 17) VH: QVELQQSGPGLVKPSQTLSLTCAISGDSVSTRSAAWGWIRQSPGRGLEWLGRIYMRSKWYNDYAVSVKSRITINPDTSKNQFSLQLNSVTPEDTAVYYCARHTYPYLSFDVWGQGTLVTVSS VL: DIELTQPPSVSVAPGQTARISCSGDALGGYFVSWYQQKPGQAPVLVIYDDDNRPSGIPERFSGSNSGNTATLTISGTQAEDEADYYCASYDGDEFTVFGGGTKLTVL |
| < 10 nM | 0.0128 µg/mL | – | mAb 4 (antibody, human IgG4 S228P, V domains shown, human IgG4 with S229P; also called candidate 4; Fab 4) VH: QVELQQSGPGLVKPSQTLSLTCAISGDSVSTRSAAWGWIRQSPGRGLEWLGKISYRSRWYNDYAVSVKSRITINPDTSKNQFSLQLNSVTPEDTAVYYCARHTYPYLSFDVWGQGTLVTVSS VL: DIELTQPPSVSVAPGQTARISCSGDALGGYFVSWYQQKPGQAPVLVIYDDDNRPSGIPERFSGSNSGNTATLTISGTQAEDEADYYCASYDGDEFTVFGGGTKLTVL |
| < 10 nM | 0.0161 µg/mL | – | mAb 7 (antibody, human IgG4 S228P, V domains shown, human IgG4 with S229P; also called candidate 7; Fab 7) VH: QVELQQSGPGLVKPSQTLSLTCAISGDSVSTRSAAWGWIRQSPGRGLEWLGRIYMRSKWYNDYAVSVKSRITINPDTSKNQFSLQLNSVTPEDTAVYYCARHTYPYLSFDVWGQGTLVTVSS VL: DIELTQPPSVSVAPGQTARISCSGDALGGYFVSWYQQKPGQAPVLVIYDDDNRPSGIPERFSGSNSGNTATLTISGTQAEDEADYYCSSYDSDSLTVFGGGTKLTVL |
| < 10 nM | 0.0199 µg/mL | – | mAb 5 (antibody, human IgG4 S228P, V domains shown, human IgG4 with S229P; also called candidate 5; Fab 5) VH: QVELQQSGPGLVKPSQTLSLTCAISGDSVSTRSAAWGWIRQSPGRGLEWLGRIYMRSKWYNDYAVSVKSRITINPDTSKNQFSLQLNSVTPEDTAVYYCARHTYPYLSFDVWGQGTLVTVSS VL: DIELTQPPSVSVAPGQTARISCSGDALGGYFVSWYQQKPGQAPVLVIYDDDNRPSGIPERFSGSNSGNTATLTISGTQAEDEADYYCQSYDEDSATVFGGGTKLTVL |
| < 10 nM | 0.019 µg/mL | – | mAb 6 (antibody, human IgG4 S228P, V domains shown, human IgG4 with S229P; also called candidate 6; Fab 6) VH: QVELQQSGPGLVKPSQTLSLTCAISGDSVSTRSAAWGWIRQSPGRGLEWLGRIYMRSKWYNDYAVSVKSRITINPDTSKNQFSLQLNSVTPEDTAVYYCARHTYPYLSFDVWGQGTLVTVSS VL: DIELTQPPSVSVAPGQTARISCSGDALGGYFVSWYQQKPGQAPVLVIYDDDNRPSGIPERFSGSNSGNTATLTISGTQAEDEADYYCGSYDSNSLTVFGGGTKLTVL |
| < 10 nM | 0.0234 µg/mL | – | mAb 3 (antibody, human IgG4 S228P, V domains shown, human IgG4 with S229P; also called candidate 3; Fab 3) VH: QVELQQSGPGLVKPSQTLSLTCAISGDSVSTRSAAWGWIRQSPGRGLEWLGRIHRRSKWYNDYAVSVKSRITINPDTSKNQFSLQLNSVTPEDTAVYYCARHTYPYLSFDVWGQGTLVTVSS VL: DIELTQPPSVSVAPGQTARISCSGDALGGYFVSWYQQKPGQAPVLVIYDDDNRPSGIPERFSGSNSGNTATLTISGTQAEDEADYYCASYDGDEFTVFGGGTKLTVL |
| < 10 nM | 0.0531 µg/mL | – | mAb 2 (antibody, human IgG4 S228P, V domains shown, human IgG4 with S229P; also called candidate 2; Fab 2) VH: QVELVQSGAEVKKPGESLKISCKGSGYSFNNYWIGWVRQMPGKGLEWMGIIDPQDSWTNYAPSFQGQVTISADKSISTAYLQWSSLKASDTAMYYCARNIYEFDYWGQGTLVTVSS VL: DIQMTQSPSSLSASVGDRVTITCRASQGISSWLNWYQQKPGKAPKLLIYGASNLQSGVPSRFSGSGSGTDFTLTISSLQPEDFAVYYCQQYDDFSITFGQGTKVEIK |
| < 10 nM | 0.0437 µg/mL | – | mAb 16 (antibody, human IgG4 S228P, V domains shown, human IgG4 with S229P; also called candidate 16; Fab 16) VH: QVELVQSGAEVKKPGESLKISCKGSGYSFNNYWIGWVRQMPGKGLEWMGIIDPGDSYTNYAPSFQGQVTISADKSISTAYLQWSSLKASDTAMYYCARNIYEFDYWGQGTLVTVSS VL: DIQMTQSPSSLSASVGDRVTITCRASQGISSWLNWYQQKPGKAPKLLIYGASNLQSGVPSRFSGSGSGTDFTLTISSLQPEDFAVYYCQQYDDFSITFGQGTKVEIK |
